Numbering of substitutions follows the chain as printed.
Assays:
[1] = target: the molecule itself; experiment: solid-state NMR of homomeric fibrils
[2] = target: the molecule itself; experiment: single molecule fluorescence
[3] = target: T1, His6-YPet-mRIPK3_(379-486) (mouse, UniProt Q9QZL0 379-486); experiment: SDS semi-denaturing agarose gel electrophoresis
T1 sequence (looked up): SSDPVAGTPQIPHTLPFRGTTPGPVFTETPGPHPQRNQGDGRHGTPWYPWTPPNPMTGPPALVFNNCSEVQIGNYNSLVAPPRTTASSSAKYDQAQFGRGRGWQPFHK

[4] = target: the molecule itself; experiment: Thioflavin T fluorescence + negative stain transmission electron microscopy
[5] = target: T2, His6-YPet-hRIPK3_(387–518) (human, UniProt Q9Y572 387-518); experiment: Two-Colour Coincidence Detection spectroscopy
T2 sequence (looked up): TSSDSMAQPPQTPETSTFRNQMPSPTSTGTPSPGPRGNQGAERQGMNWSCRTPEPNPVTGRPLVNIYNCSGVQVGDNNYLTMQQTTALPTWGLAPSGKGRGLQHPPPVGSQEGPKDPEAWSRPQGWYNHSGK

B1: RIPK3_(387-518), RHIM-containing region of human RIPK3, tag removed (domain or fragment, UniProt Q9Y572 387-518, looked up)
chain: T2 sequence (looked up)
binding result [1]: binds

B2: His6-M45_(1–90)-mCherry, wild type (domain or fragment, murine cytomegalovirus (MCMV), UniProt Q06A28 1-90, looked up)
chain: MDRQPKVYSDPDNGFFFLDVPMPDDGQGGQQTATTAAGGAFGVGGGHSVPYVRIMNGVSGIQIGNHNAMSIASCWSPSYTDRRRRSYPKT
binding result [2]: binds
binding result [3]: binds

B3: M45_(1-90), RHIM-containing N-terminal region of MCMV M45 (viral inhibitor of RIP activation), tag removed (domain or fragment, murine cytomegalovirus (MCMV), UniProt Q06A28 1-90, looked up)
chain: B2 chain
binding result [1]: binds

B4: His6-M45_(1–90)-mCherry, AAAA mutant A (domain or fragment, murine cytomegalovirus (MCMV), UniProt Q06A28 1-90, looked up)
chain: B2 chain with R53A, I54A, M55A, N56A
binding result [4]: binds
binding result [5]: binds

B5: His6-M45_(1–90)-mCherry, AAAA mutant D (domain or fragment, murine cytomegalovirus (MCMV), UniProt Q06A28 1-90, looked up)
chain: B2 chain with N65A, H66A, N67A
binding result [5]: binds

B6: His6-M45_(1–90)-mCherry, AAAA mutant C (domain or fragment, murine cytomegalovirus (MCMV), UniProt Q06A28 1-90, looked up)
chain: B2 chain with I61A, Q62A, I63A, G64A
binding result [5]: binds

B7: His6-M45_(1–90)-mCherry, AAAA mutant E (domain or fragment, murine cytomegalovirus (MCMV), UniProt Q06A28 1-90, looked up)
chain: B2 chain with M69A, S70A, I71A
binding result [5]: binds

B8: His6-M45_(1–90)-mCherry, AAAA mutant B (domain or fragment, murine cytomegalovirus (MCMV), UniProt Q06A28 1-90, looked up)
chain: B2 chain with G57A, V58A, S59A, G60A
binding result [2]: binds
binding result [5]: binds
